Source: patent publication US20140194320, “METHOD FOR PREPARING NUCLEIC ACID APTAMER” (TAGCYX BITOECNOLOGIES, published 2014)
Substitutions are numbered along the chain they refer to.

Legend:
[1] = biological target: T1, NF-κB p50 (rhNF-κB) (Homo sapiens, UniProt P19838 P19838:1-433); assay: SPR; PBS, 0.05% Nonidet P-40, 2.5 mM DTT, 25 C; Example 3 text gives range 5.7 to 8.7; conditions: tags: Promega; chain copies: 2 (inferred); hairpin stem with two G-T and three G-A pairs
Procedure: (§1) The binding ability of each NF-κB p50-binding DNA aptamer clone for NF-κB p50 was determined by the surface plasmon resonance (SPR) method using BIACORE 3000 (GE Healthcare Japan Corp.). The assay in the SPR method was conducted with a temperature set to 25° C. using buffer A as a running buffer. Specifically, DNA probes (21 mer) (SEQ ID NO: 30) each having a nucleotide sequence complementary to the 3′-terminal region of each clone and having a biotinylated base at the 5′ end were immobilized onto a streptavidin-coated sensor chip (SA chip). Then, 60 μL (corresponding to 12 minutes) of a solution of each single-stranded DNA clone (95 mer) diluted to 50 nM with PBS was injected thereto at a flow rate of 5 μL/min to immobilize the clone onto the SA chip through hybridization with the probe.
(§2) Single-stranded DNA variants (68 mer, SEQ ID NOs: 31, 32, and 33; free from a sequence comprising the 5′-terminal primer sequence region) of each NF-κB p50-binding DNA aptamer clone were analyzed for their binding ability by the same SPR method as in Example 2. […] These single-stranded DNA variants used in binding analysis were prepared by chemical synthesis and gel purification. In the diagram, Cont-68 (SEQ ID NO: 34) corresponds to a single-stranded DNA in which the strands of a double-stranded DNA comprising a known NF-κB p50-binding consensus sequence were linked via adenine tetraloop (AAAA). […]

[2] = biological target: T1, NF-κB p50 (rhNF-κB); assay: SPR; PBS, 0.05% Nonidet P-40, 2.5 mM DTT, 25 C; dissociation rate 10 times larger than 5R01-68; conditions: tags: Promega; chain copies: 2 (inferred); hairpin
[3] = biological target: T1, NF-κB p50 (rhNF-κB); assay: SPR; PBS, 0.05% Nonidet P-40, 2.5 mM DTT, 25 C; natural consensus hairpin control; conditions: tags: Promega, chain copies: 2 (inferred), known NF-κB consensus duplex strands linked via AAAA tetraloop
Procedure: as §1, §2

[4] = biological target: T1, NF-κB p50 (rhNF-κB); assay: SPR; PBS, 0.05% Nonidet P-40, 2.5 mM DTT, 25 C; conditions: tags: Promega, chain copies: 2 (inferred)
Procedure: as §1
Single-stranded DNA variants (68 mer, SEQ ID NOs: 31, 32, and 33; free from a sequence comprising the 5′-terminal primer sequence region) of each NF-κB p50-binding DNA aptamer clone were analyzed for their binding ability by the same SPR method as in Example 2. […] These single-stranded DNA variants used in binding analysis were prepared by chemical synthesis and gel purification. In the diagram, Cont-68 (SEQ ID NO: 34) corresponds to a single-stranded DNA in which the strands of a double-stranded DNA comprising a known NF-κB p50-binding consensus sequence were linked via adenine tetraloop (AAAA). For SPR analysis, each of these single-stranded DNAs was immobilized onto the SA chip through hybridization with probes by the injection of 20 μL (corresponding to 1 minute) of a solution of each DNA fragment (68 mer) diluted to 250 nM with PBS at a flow rate of 20 μL/min.

[5] = biological target: T1, NF-κB p50 (rhNF-κB); assay: SPR; PBS, 0.05% Nonidet P-40, 2.5 mM DTT, 25 C; Example 2 text gives range 2.1 to 3.5 pM; conditions: tags: Promega; chain copies: 2 (inferred); hairpin stem with non-Watson-Crick pairs; 95 mer
Procedure: as §1

[6] = biological target: T1, NF-κB p50 (rhNF-κB); assay: SPR; PBS, 0.05% Nonidet P-40, 2.5 mM DTT, 25 C; immobilized by hybridization to biotinylated probe; conditions: tags: Promega; chain copies: 2 (inferred); hairpin stem with non-Watson-Crick G-A and G-T pairs
Procedure: as §1

T1 sequence (P19838 1-433, one chain of several): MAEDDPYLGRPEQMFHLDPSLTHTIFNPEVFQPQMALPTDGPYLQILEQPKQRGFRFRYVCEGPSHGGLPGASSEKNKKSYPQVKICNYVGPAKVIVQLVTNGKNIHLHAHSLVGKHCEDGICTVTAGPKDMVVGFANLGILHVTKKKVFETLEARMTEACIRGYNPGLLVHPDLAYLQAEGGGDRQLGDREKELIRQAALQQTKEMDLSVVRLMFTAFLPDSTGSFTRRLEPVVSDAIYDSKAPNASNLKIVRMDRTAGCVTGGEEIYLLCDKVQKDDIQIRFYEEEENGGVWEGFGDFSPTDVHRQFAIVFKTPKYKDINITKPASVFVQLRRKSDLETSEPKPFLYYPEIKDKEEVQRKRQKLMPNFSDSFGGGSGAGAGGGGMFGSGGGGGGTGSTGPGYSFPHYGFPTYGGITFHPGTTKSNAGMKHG

B1: 5R01-68 (ssDNA)
DNA: CGGGGAATCACTGTAGGGACATTACGCAGGGGATTCACTAGGAGTGGACTGATACGATCGATTGACAG
Kd [1]: 5.4 pM

B2: 5R01mut-68 (ssDNA)
DNA: B1 DNA with A10C, T12C, A28C, A37C, T39C
Kd [2]: 140 pM

B3: Cont-68 (ssDNA)
DNA: CCTTGAAGGGATTTCCCTCCAAAAGGAGGGAAATCCCTTCAAGGTGGACTGATACGATCGATTGACAG
Kd [3]: 3500 pM

B4: 5R05-68 (ssDNA)
DNA: TGTAACGTAGGGGTTTCACCAACACTGCGGGAAACACTGAAGCGTGGACTGATACGATCGATTGACAG
Kd ([4]; hairpin): 7.2 pM

B5: 5R14 (ssDNA)
DNA: GTAGTCACTAATCCGTTCGAGTCATGCCACGGGGTTTCACTGTTTCGTAGATTGCATAAGGGGAAACACTGTGGACTGATACGATCGATTGACAG
Kd [5]: 6.6 pM

B6: 5R01 (ssDNA)
DNA: GTAGTCACTAATCCGTTCGAGTCATGCCGGGGAATCACTGTAGGGACATTACGCAGGGGATTCACTAGGAGTGGACTGATACGATCGATTGACAG
Kd [6]: 3.5 pM

B7: 5R05 (ssDNA)
DNA: GTAGTCACTAATCCGTTCGAGTCATGCTGTAACGTAGGGGTTTCACCAACACTGCGGGAAACACTGAAGCGTGGACTGATACGATCGATTGACAG
Kd ([4]; hairpin stem with non-Watson-Crick pairs, 95 mer): 2.1 pM

B8: 5R14-68 (ssDNA)
DNA: CACGGGGTTTCACTGTTTCGTAGATTGCATAAGGGGAAACACTGTGGACTGATACGATCGATTGACAG
Kd ([4]; hairpin): 8.7 pM
